Assay results taken from PMC6179379, “The IgM pentamer is an asymmetric pentagon with an open groove that binds the AIM protein” (Science Advances, 2018).
Values joined by “and” are separate entries in the source; they are usually repeats but may differ in a detail not shown here. Identical values can stand only once. Each block holds one molecule with its values, some of them ahead of it.

Tests used:
[1] = target: FLAG-tagged mouse IgM-Fc Cys414Ser variant (mouse); assay: negative-stain EM; purified IgM-Fc or IgM made with the J chain, about 15 μg/ml, 1% uranyl acetate; reference-free 2D class averages (RELION)
[2] = target: FLAG-tagged mouse IgM-Fc Cys414Ser variant (mouse); assay: Western blotting after non-reducing SDS-PAGE; supernatant of HEK293T cells co-expressing FLAG-IgM-Fc and HA-J chain; anti-FLAG and anti-HA blots, reducing and nonreducing conditions
[3] = target: FLAG-tagged recombinant human IgM-Fc (human); assay: negative-stain EM; purified IgM-Fc or IgM made with the J chain, about 15 μg/ml, 1% uranyl acetate; reference-free 2D class averages (RELION)
[4] = target: T1, Mouse IgM-Fc pentamer with HA-tagged J chain (mouse, UniProt P01872 1-454; P01592 22-159); assay: co-IP; complex from co-culture supernatant purified on ANTI-FLAG M2 Affinity Gel, then on an anti-AIM antibody column; eluate blotted with anti-HA in a reducing condition, bands quantified with ImageJ; five experiments; conditions: partners not purified
T1 construct: Mouse immunoglobulin M heavy chain, Fc region: Cμ2-Cμ3-Cμ4 and the short tail; Mouse immunoglobulin J (joining) chain; as m2; also called Fc-pentamer/J-HA; IgM-Fc/J-HA; source: HEK293T transfected with pCAGGS-FLAG-mouse Fc and pCAGGS-mouse J chain-HA, co-cultured with cells expressing AIM-HA; not shown: FLAG, N-terminal, kept; copies: 10 + 1
T1 sequence (looked up) 1: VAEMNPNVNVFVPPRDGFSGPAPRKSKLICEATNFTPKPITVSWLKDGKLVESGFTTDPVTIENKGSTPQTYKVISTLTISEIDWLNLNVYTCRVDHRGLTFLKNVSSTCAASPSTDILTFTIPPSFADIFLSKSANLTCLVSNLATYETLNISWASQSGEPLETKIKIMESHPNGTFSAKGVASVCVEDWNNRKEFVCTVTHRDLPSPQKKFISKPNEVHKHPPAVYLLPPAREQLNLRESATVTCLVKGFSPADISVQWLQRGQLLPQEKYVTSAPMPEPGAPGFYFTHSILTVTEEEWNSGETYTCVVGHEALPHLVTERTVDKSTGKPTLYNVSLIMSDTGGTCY
T1 sequence (looked up) 2: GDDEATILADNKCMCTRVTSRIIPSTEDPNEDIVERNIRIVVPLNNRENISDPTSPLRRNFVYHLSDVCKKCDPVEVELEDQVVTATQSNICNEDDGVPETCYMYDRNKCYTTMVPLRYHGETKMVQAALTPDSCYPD

[5] = target: the molecule itself; assay: negative-stain EM; purified FLAG-tagged mouse IgM-Fc oligomers made in the absence of the J chain; reference-free 2D class averages
[6] = target: the molecule itself; assay: negative-stain EM; purified IgM-Fc or IgM made with the J chain, about 15 μg/ml, 1% uranyl acetate; reference-free 2D class averages (RELION)

Molecule: FLAG-tagged mouse IgM-Fc Cys414Ser variant (domain or fragment)
stoichiometry N [1]: 4 and 5
stoichiometry N [2]: 4 and 5

B2: FLAG-tagged recombinant mouse IgM-Fc (Cμ2 to tail) (domain or fragment, UniProt P01872 1-454, looked up)
chain: VAEMNPNVNVFVPPRDGFSGPAPRKSKLICEATNFTPKPITVSWLKDGKLVESGFTTDPVTIENKGSTPQTYKVISTLTISEIDWLNLNVYTCRVDHRGLTFLKNVSSTCAASPSTDILTFTIPPSFADIFLSKSANLTCLVSNLATYETLNISWASQSGEPLETKIKIMESHPNGTFSAKGVASVCVEDWNNRKEFVCTVTHRDLPSPQKKFISKPNEVHKHPPAVYLLPPAREQLNLRESATVTCLVKGFSPADISVQWLQRGQLLPQEKYVTSAPMPEPGAPGFYFTHSILTVTEEEWNSGETYTCVVGHEALPHLVTERTVDKSTGKPTLYNVSLIMSDTGGTCY
notes: Mouse immunoglobulin M heavy chain, Fc region: Cμ2-Cμ3-Cμ4 and the short tail (19 amino acids); also called mouse Fc; Fc monomer; source: HEK293T, transfected (pCAGGS-FLAG-IgM-Fc, with or without the J chain plasmid), in culture supernatant; not shown: FLAG, N-terminal, kept
stoichiometry N [5]: 6
stoichiometry N [6]: 5

The next lines start with the values.

stoichiometry N [3]: 5
Molecule: FLAG-tagged recombinant human IgM-Fc (domain or fragment)

ratio of HA signal, AIM-HA versus J-HA [4]: 1.3 ± 0.12 J-HA signal per AIM-HA signal
stoichiometry N [4]: 1 AIM per pentamer
B1: HA-tagged mouse AIM (natural protein, UniProt Q9QWK4 22-352, looked up)
chain: ESPTKVQLVGGAHRCEGRVEVEHNGQWGTVCDDGWDRRDVAVVCRELNCGAVIQTPRGASYQPPASEQRVLIQGVDCNGTEDTLAQCELNYDVFDCSHEEDAGAQCENPDSDLLFIPEDVRLVDGPGHCQGRVEVLHQSQWSTVCKAGWNLQVSKVVCRQLGCGRALLTYGSCNKNTQGKGPIWMGKMSCSGQEANLRSCLLSRLENNCTHGEDTWMECEDPFELKLVGGDTPCSGRLEVLHKGSWGSVCDDNWGEKEDQVVCKQLGCGKSLHPSPKTRKIYGPGAGRIWLDDVNCSGKEQSLEFCRHRLWGYHDCTHKEDVEVICTDFDV
notes: Mouse AIM (CD5L), secreted; also called AIM-HA; source: HEK293T, transfected (pCAGGS-AIM-HA), co-cultured with cells expressing FLAG-mouse Fc and J chain-HA; culture supernatant, co-purified with the Fc pentamer
